Measured values from patent US20100211325A1.

How the values were obtained:
[1] = target: Laminin 511/521 (LM511/521) (UniProt O15230); test: SPR (Biacore X), Lu gpFc captured on protein A chip (40 RU), 100 µl injection of 10 nM LM511/521, total change in RU
[2] = target: Laminin 511/521 (LM511/521) (UniProt O15230); test: ELISA, 0.05 nM Lu gpFc captured by anti-human Fc, 5 nM LM511/521, anti-laminin detection
[3] = target: Laminin 511/521 (LM511/521) (UniProt O15230); test: ELISA in buffers of pH 4.0 to 11.0 and 1M NaCl, negative control Fc fusion protein captured, LM511/521 added

Muc18 Fc fusion protein (negative control), sequence (P43121 24-559): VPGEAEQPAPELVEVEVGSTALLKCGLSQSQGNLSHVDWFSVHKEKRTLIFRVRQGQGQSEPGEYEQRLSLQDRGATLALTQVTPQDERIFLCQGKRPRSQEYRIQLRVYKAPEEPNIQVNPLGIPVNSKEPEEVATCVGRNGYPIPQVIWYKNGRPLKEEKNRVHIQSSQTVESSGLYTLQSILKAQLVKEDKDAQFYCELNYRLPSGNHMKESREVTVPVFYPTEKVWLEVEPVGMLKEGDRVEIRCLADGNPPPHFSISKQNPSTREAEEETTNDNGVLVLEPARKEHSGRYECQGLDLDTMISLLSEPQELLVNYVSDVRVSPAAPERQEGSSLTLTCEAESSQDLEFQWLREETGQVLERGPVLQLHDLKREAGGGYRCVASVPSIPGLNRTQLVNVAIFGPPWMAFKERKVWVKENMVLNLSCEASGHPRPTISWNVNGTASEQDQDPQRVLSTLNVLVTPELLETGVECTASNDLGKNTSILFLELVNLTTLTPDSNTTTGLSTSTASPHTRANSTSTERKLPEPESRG

Row | Substance | Biacore Δ RUs [1] | ELISA % of native Lu gpFc [2] | OD450 (background binding) [3]
1 | Lu gpFc D310A (from UniProt P50895 32-547) (Fc fusion) | 38.5 RU | 26.4% | 
2 | Lu gpFc D312A (from UniProt P50895 32-547) (Fc fusion) | 4.4 RU | 20.7% | 
3 | Lu gpFc D316A (from UniProt P50895 32-547) (Fc fusion) | 79.8 RU | 75% | 
4 | Lu gpFc E280A (from UniProt P50895 32-547) (Fc fusion) | 99.1 RU | 73% | 
5 | Lu gpFc E281A (from UniProt P50895 32-547) (Fc fusion) | 100 RU | 97.3% | 
6 | Lu gpFc E309A (from UniProt P50895 32-547) (Fc fusion) | 44.9 RU | 40.4% | 
7 | Muc18 Fc fusion protein (negative control) (from UniProt P43121 24-559) |  |  | 0.18 to 0.64 OD450

Other lines, results leading:

Row | Biacore Δ RUs [1] | ELISA % of native Lu gpFc [2] | OD450 (background binding) [3] | Substance
8 | 59.7 RU | 49% |  | Lu gpFc D198A/D199A (from UniProt P50895 32-547) (Fc fusion)
9 | 116 RU | 93.2% |  | Lu gpFc D315A (from UniProt P50895 32-547) (Fc fusion)
10 | 85 RU | 90.7% |  | Lu gpFc E234A (from UniProt P50895 32-547) (Fc fusion)
11 | 73.8 RU | 63.2% |  | Lu gpFc E269A (from UniProt P50895 32-547) (Fc fusion)
